Legend:
iMSCs [1] = assay: quantitative real-time PCR of immunomodulatory marker genes in iMSCs treated with immune stimulators; assay type: cell-based, human; settings: iMSCs 100k cells/sample; dsRNA 500 ng/sample or IFNr 10 ng/ml; 24 hours; particularly IDO1, TLR3 and HGF; control genes CD73, CD90, CD105 not upregulated; FIG. 5
Experimental: In a first set of studies, iMSCs were treated with immune stimulators, either double-strand RNA (dsRNA) or recombinant human interferon gamma (IFNr)(R&D Systems, Cat. #35-IF-100). iMSCs (100k cells/sample) were cultured with dsRNA (500 ng/sample) or IFNr (10 ng/ml) for 24 hours. […] Immunostimulatory marker genes examined were: RIG1, TLR3, COX2, IDO1, HGF and TGF-beta. Control genes (for MSC surface markers) examined were: CD73, CD90 and CD105.

iMSCs [2] = assay: IL-10 secretion by iMSCs after IFNr treatment (ELISA); assay type: cell-based, human; settings: IFNr 20 ng/mL or 50 ng/mL for three days; media supernatant; FIG. 7
Experimental: In a third set of experiments, the production of the anti-inflammatory factor IL-10 by the iMSCs was examined after treatment with IFNr. iMSCs (50k cells/well of a 24 well plate; approx. 25,000 cells/cm^2) were treated with low concentration (20 ng/mL) or high concentration (50 ng/mL) IFNr for three days to stimulate secretion of IL-10. The control group was the same culture conditions but without IFNr treatment. After three days, media supernatant was collected and the level of IL-10 secretion was quantified by standard ELISA analysis (human IL-10 Quantikine ELISA kit, R&D Systems, Cat. #D1000B).

B1: IFNr: recombinant human interferon gamma (R&D Systems), immune stimulator (protein, UniProt P01579 24-161, looked up)
Interferon gamma: QDPYVKEAENLKKYFNAGHSDVADNGTLFLGILKNWKEESDRKIMQSQIVSFYFKLFKNFKDDQSIQKSVETIKEDMNVKFFNSNKKKRDDFEKLTNYSVTDLNVQRKAIHELIQVMAELSPAAKTGKRKRSQMLFRG
expression of genes associated with immunostimulation (RIG1, TLR3, COX2, IDO1, HGF, TGF-beta) (iMSCs [1]): increased expression | secretion of IL-10 by iMSCs (iMSCs [2]): dose-dependent
